Patent US20120052092A1 (published 2012)

Legend:
[1] = target: T1, factor H binding protein (wild type, variant 1) (UniProt E6MV22 20-274); assay: SPR
T1 chain: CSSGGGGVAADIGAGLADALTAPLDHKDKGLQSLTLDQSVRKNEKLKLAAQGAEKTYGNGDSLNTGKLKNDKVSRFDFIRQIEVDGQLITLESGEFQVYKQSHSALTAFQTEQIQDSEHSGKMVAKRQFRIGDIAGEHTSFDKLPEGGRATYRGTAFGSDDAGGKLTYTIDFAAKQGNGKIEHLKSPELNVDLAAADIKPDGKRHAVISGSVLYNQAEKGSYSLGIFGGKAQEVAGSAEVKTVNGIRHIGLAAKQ

[2] = target: T1, factor H binding protein (wild type, …); assay: SPR; 402His
[3] = target: T1, factor H binding protein (wild type, …); assay: SPR
[4] = target: T2, Neisseria gonorrhoeae fHbp homologue (NGO0033) (Neisseria gonorrhoeae); assay: SPR
T2 chain: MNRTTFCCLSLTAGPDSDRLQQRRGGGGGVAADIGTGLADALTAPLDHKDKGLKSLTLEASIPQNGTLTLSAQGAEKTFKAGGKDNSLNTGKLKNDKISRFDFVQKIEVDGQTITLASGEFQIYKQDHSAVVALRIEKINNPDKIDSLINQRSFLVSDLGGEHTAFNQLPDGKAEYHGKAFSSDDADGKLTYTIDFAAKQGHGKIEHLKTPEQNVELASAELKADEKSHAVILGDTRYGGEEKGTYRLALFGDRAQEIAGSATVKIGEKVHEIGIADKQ

fHbp Variant 2 [5] = target: fHbp Variant 2 (Neisseria meningitidis); assay: SPR
fHbp Variant 3 [6] = target: fHbp Variant 3 (Neisseria meningitidis); assay: SPR
fHbp variant 2 [7] = target: fHbp variant 2 (Neisseria meningitidis); assay: SPR; sensorgram
fHbp variant 3 [8] = target: fHbp variant 3 (Neisseria meningitidis); assay: SPR; sensorgram
6 7H 8 = assay: SPR; 402His
6 7Y 8 = assay: SPR; 402Tyr
fH678 His 402 = assay: SPR; 402His
fH678 Tyr402 = assay: SPR; 402Tyr
FH67 N339E M340S = assay: SPR

B1: Factor H Domains 5, 6 and 7 (other)
chain: KSCDNPYIPNGDYSPLRIKHRTGDEITYQCRNGFYPATRGNTAKCTSTGWIPAPRCTLKPCDYPDIKHGGLYHENMRRPYFPVAVGKYYSYYCDEHFETPSGSYWDHIHCTQDGWSPAVPCLRKCYFPYLENGYNQNYGRKFVQGKSIDVACHPGYALPKAQTTVTCMENGWSPTPRCI
B1 was tested, and the Kd [1] was 6.1 nM and the Kd [2] was 6 nM.

B2: fH67 (CCPs 6 and 7 of factor H) (other)
chain: TLKPCDYPDIKHGGLYHENMRRPYFPVAVGKYYSYYCDEHFETPSGSYWDHIHCTQDGWSPAVPCLRKCYFPYLENGYNQNYGRKFVQGKSIDVACHPGYALPKAQTTVTCMENGWSPTPRCI
Binder B2 has a Kd [3] of 5 nM, a Kd [4] of 6 µM and a Kd [1] of 4 nM. For the same binder, the Kd [2] was 4 nM.

B3: FH67 (other)
chain: B2 chain
B3 showed a Kd (fHbp Variant 2 [5]) of 2 nM and a Kd (fHbp Variant 3 [6]) of 3 nM.

B4: FH678 (other)
chain: TLKPCDYPDIKHGGLYHENMRRPYFPVAVGKYYSYYCDEHFETPSGSYWDHIHCTQDGWSPAVPCLRKCYFPYLENGYNQNYGRKFVQGKSIDVACHPGYALPKAQTTVTCMENGWSPTPRCIRVKTCSKSSIDIENGFISESQYTYALKEKAKYQCKLGYVTADGETSGSITCGKDGWSAQPTCIKSC
B4 showed a Kd (fHbp Variant 2 [5]) of 2 nM, a Kd (fHbp Variant 3 [6]) of 3 nM and a Kd (fHbp variant 2 [7]) of 1.51 nM. The Kd (fHbp variant 3 [8]) was 3.43 nM.

B5: fHbp (other)
chain: T1 chain
Binder B5 has a Kd (6 7H 8) of 6 nM, a Kd (6 7Y 8) of 7 nM and a Kd (fH678 His 402) of 5.7 nM. The Kd (fH678 Tyr402) was 7.2 nM.

B6: fHbp Variant 1 (other)
chain: T1 chain
Binder B6 has a Kd (FH67 N339E M340S) of 67 nM.
